{"source": "patent US20110064740A1", "about": "(GlaxoSmithKline, published 2011)", "binders": {"B1": {"name": "H2L1 Fab, H2 heavy chain truncated at residue 224 of the hinge region (Fab, V domains shown)", "VH": "EVQLVESGGGLVQPGGSLRLSCAVSGFTFSDNGMAWVRQAPGKGLEWVSFISNLAYSIDYADTVTGRFTISRDNAKNSLYLQMNSLRAEDTAVYYCVSGTWFAYWGQGTLVTVSS", "VL": "DIVMTQSPLSLPVTPGEPASISCRVSQSLLHSNGYTYLHWYLQKPGQSPQLLIYKVSNRFSGVPDRFSGSGSGTDFTLKISRVEAEDVGVYYCSQTRHVPYTFGGGTKVEIKR", "notes": "Recombinant Fab from CHOK1 culture supernatant; also called (a) H2L1 Fab"}, "B2": {"name": "H2L1 Fab cys, H2 heavy chain truncated at the second cysteine in the hinge region at residue 226 (Fab, V domains shown)", "VH": "B1 VH", "VL": "B1 VL", "notes": "Recombinant Fab from CHOK1 culture supernatant; also called (b) H2L1 Fab cys"}, "B3": {"name": "H2L1 Fab His, H2 heavy chain truncated at position 224 with a C-terminal 6x histidine tag including histidine at position 224 (Fab, V domains shown)", "VH": "B1 VH", "VL": "B1 VL", "notes": "Recombinant Fab from CHOK1 culture supernatant"}}}
{"target": "T1, human Aβ peptide (1-40) biotinylated at the C terminus (human, UniProt P05067 672-711, biotinylated at the C-terminus)", "T1 construct": "domain: β-amyloid peptide (1-40); Numbers 1-40 count on the β-amyloid peptide, not on APP; also called beta-amyloid 1-40 peptide (biotinylated at the C-terminus); streptavidin-captured beta-amyloid (1-40)", "T1 sequence (P05067 672-711 limits assumed)": "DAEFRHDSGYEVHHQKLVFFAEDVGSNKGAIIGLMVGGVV", "experiment": "Aβ binding ELISA with culture supernatant, Aβ peptide (1-40)", "units": {"EC50": "µg/mL"}}
{"binder": "B1", "EC50": 0.239}
{"binder": "B2", "EC50": 0.226}
{"binder": "B3", "EC50": 0.227}
